B1: UGT76G1var1: UGT76G1 variant, mutations E224A_F314S_R334K (protein, UniProt Q6VAB4 1-458, looked up, variant E224A F314S R334K)
UDP-glycosyltransferase 76G1: MENKTETTVRRRRRIILFPVPFQGHINPILQLANVLYSKGFSITIFHTNFNKPKTSNYPHFTFRFILDNDPQDERISNLPTHGPLAGMRIPIINEHGADELRRELELLMLASEEDEEVSCLITDALWYFAQSVADSLNLRRLVLMTSSLFNFHAHVSLPQFDELGYLDPDDKTRLEEQASGFPMLKVKDIKSAYSNWQILKEILGKMIKQTKASSGVIWNSFKALEESELETVIREIPAPSFLIPLPKHLTASSSSLLDHDRTVFQWLDQQPPSSVLYVSFGSTSEVDEKDFLEIARGLVDSKQSFLWVVRPGSVKGSTWVEPLPDGFLGERGKIVKWVPQQEVLAHGAIGAFWTHSGWNSTLESVCEGVPMIFSDFGLDQPLNARYMSDVLKVGVYLENGWERGEIANAIRRVMVDEEGEYIRQNARVLKQKADVSLMKGGSSYESLESLVSYISSL
B2: UGT76G1var51: UGT76G1 variant, mutations K303G_S357C_S389E_V396F (protein, UniProt Q6VAB4 1-458, looked up, variant K303G S357C S389E V396F)
UDP-glycosyltransferase 76G1: MENKTETTVRRRRRIILFPVPFQGHINPILQLANVLYSKGFSITIFHTNFNKPKTSNYPHFTFRFILDNDPQDERISNLPTHGPLAGMRIPIINEHGADELRRELELLMLASEEDEEVSCLITDALWYFAQSVADSLNLRRLVLMTSSLFNFHAHVSLPQFDELGYLDPDDKTRLEEQASGFPMLKVKDIKSAYSNWQILKEILGKMIKQTKASSGVIWNSFKELEESELETVIREIPAPSFLIPLPKHLTASSSSLLDHDRTVFQWLDQQPPSSVLYVSFGSTSEVDEKDFLEIARGLVDSGQSFLWVVRPGFVKGSTWVEPLPDGFLGERGRIVKWVPQQEVLAHGAIGAFWTHCGWNSTLESVCEGVPMIFSDFGLDQPLNARYMEDVLKVGFYLENGWERGEIANAIRRVMVDEEGEYIRQNARVLKQKADVSLMKGGSSYESLESLVSYISSL
B3: UGT76G1var54: UGT76G1 variant, mutations E229A_T284L_R334K_Q342E (protein, UniProt Q6VAB4 1-458, looked up, variant E229A T284L R334K Q342E)
UDP-glycosyltransferase 76G1: MENKTETTVRRRRRIILFPVPFQGHINPILQLANVLYSKGFSITIFHTNFNKPKTSNYPHFTFRFILDNDPQDERISNLPTHGPLAGMRIPIINEHGADELRRELELLMLASEEDEEVSCLITDALWYFAQSVADSLNLRRLVLMTSSLFNFHAHVSLPQFDELGYLDPDDKTRLEEQASGFPMLKVKDIKSAYSNWQILKEILGKMIKQTKASSGVIWNSFKELEESALETVIREIPAPSFLIPLPKHLTASSSSLLDHDRTVFQWLDQQPPSSVLYVSFGSLSEVDEKDFLEIARGLVDSKQSFLWVVRPGFVKGSTWVEPLPDGFLGERGKIVKWVPQEEVLAHGAIGAFWTHSGWNSTLESVCEGVPMIFSDFGLDQPLNARYMSDVLKVGVYLENGWERGEIANAIRRVMVDEEGEYIRQNARVLKQKADVSLMKGGSSYESLESLVSYISSL
B4: UGT76G1var52: UGT76G1 variant, mutations D301N_I373L_F377C_I407V (protein, UniProt Q6VAB4 1-458, looked up, variant D301N I373L F377C I407V)
UDP-glycosyltransferase 76G1: MENKTETTVRRRRRIILFPVPFQGHINPILQLANVLYSKGFSITIFHTNFNKPKTSNYPHFTFRFILDNDPQDERISNLPTHGPLAGMRIPIINEHGADELRRELELLMLASEEDEEVSCLITDALWYFAQSVADSLNLRRLVLMTSSLFNFHAHVSLPQFDELGYLDPDDKTRLEEQASGFPMLKVKDIKSAYSNWQILKEILGKMIKQTKASSGVIWNSFKELEESELETVIREIPAPSFLIPLPKHLTASSSSLLDHDRTVFQWLDQQPPSSVLYVSFGSTSEVDEKDFLEIARGLVNSKQSFLWVVRPGFVKGSTWVEPLPDGFLGERGRIVKWVPQQEVLAHGAIGAFWTHSGWNSTLESVCEGVPMLFSDCGLDQPLNARYMSDVLKVGVYLENGWERGEVANAIRRVMVDEEGEYIRQNARVLKQKADVSLMKGGSSYESLESLVSYISSL
B5: UGT76G1var47: UGT76G1 variant, mutations E229A_T284I_S389E (protein, UniProt Q6VAB4 1-458, looked up, variant E229A T284I S389E)
UDP-glycosyltransferase 76G1: MENKTETTVRRRRRIILFPVPFQGHINPILQLANVLYSKGFSITIFHTNFNKPKTSNYPHFTFRFILDNDPQDERISNLPTHGPLAGMRIPIINEHGADELRRELELLMLASEEDEEVSCLITDALWYFAQSVADSLNLRRLVLMTSSLFNFHAHVSLPQFDELGYLDPDDKTRLEEQASGFPMLKVKDIKSAYSNWQILKEILGKMIKQTKASSGVIWNSFKELEESALETVIREIPAPSFLIPLPKHLTASSSSLLDHDRTVFQWLDQQPPSSVLYVSFGSISEVDEKDFLEIARGLVDSKQSFLWVVRPGFVKGSTWVEPLPDGFLGERGRIVKWVPQQEVLAHGAIGAFWTHSGWNSTLESVCEGVPMIFSDFGLDQPLNARYMEDVLKVGVYLENGWERGEIANAIRRVMVDEEGEYIRQNARVLKQKADVSLMKGGSSYESLESLVSYISSL
B6: UGT76G1var49: UGT76G1 variant, mutations F41L_Q266E_T284I_Y397Q (protein, UniProt Q6VAB4 1-458, looked up, variant F41L Q266E T284I Y397Q)
UDP-glycosyltransferase 76G1: MENKTETTVRRRRRIILFPVPFQGHINPILQLANVLYSKGLSITIFHTNFNKPKTSNYPHFTFRFILDNDPQDERISNLPTHGPLAGMRIPIINEHGADELRRELELLMLASEEDEEVSCLITDALWYFAQSVADSLNLRRLVLMTSSLFNFHAHVSLPQFDELGYLDPDDKTRLEEQASGFPMLKVKDIKSAYSNWQILKEILGKMIKQTKASSGVIWNSFKELEESELETVIREIPAPSFLIPLPKHLTASSSSLLDHDRTVFEWLDQQPPSSVLYVSFGSISEVDEKDFLEIARGLVDSKQSFLWVVRPGFVKGSTWVEPLPDGFLGERGRIVKWVPQQEVLAHGAIGAFWTHSGWNSTLESVCEGVPMIFSDFGLDQPLNARYMSDVLKVGVQLENGWERGEIANAIRRVMVDEEGEYIRQNARVLKQKADVSLMKGGSSYESLESLVSYISSL
B7: UGT76G1var50: UGT76G1 variant, mutations F22Y_V310I_S375M_F377C (protein, UniProt Q6VAB4 1-458, looked up, variant F22Y V310I S375M F377C)
UDP-glycosyltransferase 76G1: MENKTETTVRRRRRIILFPVPYQGHINPILQLANVLYSKGFSITIFHTNFNKPKTSNYPHFTFRFILDNDPQDERISNLPTHGPLAGMRIPIINEHGADELRRELELLMLASEEDEEVSCLITDALWYFAQSVADSLNLRRLVLMTSSLFNFHAHVSLPQFDELGYLDPDDKTRLEEQASGFPMLKVKDIKSAYSNWQILKEILGKMIKQTKASSGVIWNSFKELEESELETVIREIPAPSFLIPLPKHLTASSSSLLDHDRTVFQWLDQQPPSSVLYVSFGSTSEVDEKDFLEIARGLVDSKQSFLWVIRPGFVKGSTWVEPLPDGFLGERGRIVKWVPQQEVLAHGAIGAFWTHSGWNSTLESVCEGVPMIFMDCGLDQPLNARYMSDVLKVGVYLENGWERGEIANAIRRVMVDEEGEYIRQNARVLKQKADVSLMKGGSSYESLESLVSYISSL
B8: UGT76G1var53: UGT76G1 variant, mutations R334K_A352G_P382M_S389E (protein, UniProt Q6VAB4 1-458, looked up, variant R334K A352G P382M S389E)
UDP-glycosyltransferase 76G1: MENKTETTVRRRRRIILFPVPFQGHINPILQLANVLYSKGFSITIFHTNFNKPKTSNYPHFTFRFILDNDPQDERISNLPTHGPLAGMRIPIINEHGADELRRELELLMLASEEDEEVSCLITDALWYFAQSVADSLNLRRLVLMTSSLFNFHAHVSLPQFDELGYLDPDDKTRLEEQASGFPMLKVKDIKSAYSNWQILKEILGKMIKQTKASSGVIWNSFKELEESELETVIREIPAPSFLIPLPKHLTASSSSLLDHDRTVFQWLDQQPPSSVLYVSFGSTSEVDEKDFLEIARGLVDSKQSFLWVVRPGFVKGSTWVEPLPDGFLGERGKIVKWVPQQEVLAHGAIGGFWTHSGWNSTLESVCEGVPMIFSDFGLDQMLNARYMEDVLKVGVYLENGWERGEIANAIRRVMVDEEGEYIRQNARVLKQKADVSLMKGGSSYESLESLVSYISSL
B9: UGT76G1var55: UGT76G1 variant, mutations I295M_Q342E_V366I_N409R (protein, UniProt Q6VAB4 1-458, looked up, variant I295M Q342E V366I N409R)
UDP-glycosyltransferase 76G1: MENKTETTVRRRRRIILFPVPFQGHINPILQLANVLYSKGFSITIFHTNFNKPKTSNYPHFTFRFILDNDPQDERISNLPTHGPLAGMRIPIINEHGADELRRELELLMLASEEDEEVSCLITDALWYFAQSVADSLNLRRLVLMTSSLFNFHAHVSLPQFDELGYLDPDDKTRLEEQASGFPMLKVKDIKSAYSNWQILKEILGKMIKQTKASSGVIWNSFKELEESELETVIREIPAPSFLIPLPKHLTASSSSLLDHDRTVFQWLDQQPPSSVLYVSFGSTSEVDEKDFLEMARGLVDSKQSFLWVVRPGFVKGSTWVEPLPDGFLGERGRIVKWVPQEEVLAHGAIGAFWTHSGWNSTLESICEGVPMIFSDFGLDQPLNARYMSDVLKVGVYLENGWERGEIARAIRRVMVDEEGEYIRQNARVLKQKADVSLMKGGSSYESLESLVSYISSL
B10: UGT76G1var48: UGT76G1 variant, mutations V394I_Y397E_Q432E (protein, UniProt Q6VAB4 1-458, looked up, variant V394I Y397E Q432E)
UDP-glycosyltransferase 76G1: MENKTETTVRRRRRIILFPVPFQGHINPILQLANVLYSKGFSITIFHTNFNKPKTSNYPHFTFRFILDNDPQDERISNLPTHGPLAGMRIPIINEHGADELRRELELLMLASEEDEEVSCLITDALWYFAQSVADSLNLRRLVLMTSSLFNFHAHVSLPQFDELGYLDPDDKTRLEEQASGFPMLKVKDIKSAYSNWQILKEILGKMIKQTKASSGVIWNSFKELEESELETVIREIPAPSFLIPLPKHLTASSSSLLDHDRTVFQWLDQQPPSSVLYVSFGSTSEVDEKDFLEIARGLVDSKQSFLWVVRPGFVKGSTWVEPLPDGFLGERGRIVKWVPQQEVLAHGAIGAFWTHSGWNSTLESVCEGVPMIFSDFGLDQPLNARYMSDVLKIGVELENGWERGEIANAIRRVMVDEEGEYIRQNARVLKEKADVSLMKGGSSYESLESLVSYISSL

Test: Directed evolution of UGT76G1, Rebaudioside D to Rebaudioside M, round 1 (Example 26)
Type: biochemical
Conditions: 100 μL fresh lysate, 0.5 mM Rebaudioside D, 30° C., pH 7.2
Procedure: Lysis was performed by addition of Bugbuster® Master mix (Novagen®) to the thawed cells and the lysate was recovered by centrifugation. Activity tests were performed with 100 μL of fresh lysate that was added to a solution of Rebaudioside D (final concentration 0.5 mM), MgCl2 (final concentration 3 mM) and UDP-Glucose (final concentration 2.5 mM) in 50 mM phosphate buffer pH 7.2.
The reaction was allowed to run at 30° C. and samples were taken after 2, 4, 7 and 24 h. to determine conversion and initial rate by HPLC (CAD detection) using the analytical method that was described above for the transformation of Rebaudioside D to Rebaudioside M. The results are depicted in the following table.

Row | Molecule | initial rate [Reb M area/min] | conversion Reb D to Reb M after 24 h [%]
1 | B1 | 5.5E+07 | 
2 | B2 | 9.5E+06 | 
3 | B3 | 4.3E+05 | 0.7
4 | B4 | 4.6E+06 | 
5 | B5 | 2.7E+06 | 4.8
6 | B6 | 1.1E+06 | 2.6
7 | B7 | 7.9E+05 | 1.9
8 | B8 | 4.1E+06 | 9.3
9 | B9 | 2.2E+05 | 1.0
10 | B10 | 3.8E+07 | 

Source: patent US11653679B2, “High-purity steviol glycosides” (PureCircle Sdn Bhd, priority 2014, dated 2023)
